Paper PMC4939959

Target: Prototype foamy virus (PFV) Env glycoprotein, wild type, fully processed (gp18^LP, gp80^SU, gp48^TM), trimeric spike in the viral membrane (Prototype foamy virus (PFV)) (UniProt P14351)
Test: cryo-electron tomography with subtomogram averaging; Env in situ in the membrane of purified virus particles (wt fixed with 4% paraformaldehyde, iNAB, iFuse), plunge-frozen; single spike, 3-fold symmetry seen in the asymmetric average and then enforced; 3.2, 2.9 and 2.8 nm at FSC = 0.5; step: Env protomers in the trimeric spike

## Prototype foamy virus (PFV) Env glycoprotein, wild type, fully processed (gp18^LP, gp80^SU, gp48^TM), trimeric spike in the viral membrane (from UniProt P14351 1-126; P14351 1-126; P14351 1-126) (complex)
  stoichiometry N: 3
